{"source": "patent US7893021B2", "about": "“Parathyroid hormone antagonists and uses thereof” (Scantibodies Laboratory, Inc., priority 1999, dated 2011)", "molecules": {"B1": {"name": "hPTH 7-84: Synthetic human PTH 7-84 fragment, an exemplary PTH antagonist, obtained from Bachem (peptide)", "peptide": "LMHNLGKHLNSMERVEWLRKKLQDVHNFVALGAPLAPRDAGSQRPRKKEDNVLVESHEKSLGEANKADVNVLTKAKSQ"}, "B2": {"name": "hPTH 1-84: Synthetic human PTH 1-84, the whole 84 amino acid parathyroid hormone (SEQ ID NO:1), PTH agonist, purchased from Bachem (peptide)", "chain": "SVSEIQLMHNLGKHLNSMERVEWLRKKLQDVHNFVALGAPLAPRDAGSQRPRKKEDNVLVESHEKSLGEANKADVNVLTKAKSQ"}}, "key": {"[1]": {"system": "parathyroidectomized (PTX) rats", "experiment": "Calcemic response in parathyroidectomized (PTX) rats fed a 0.02% calcium diet", "assay_type": "in vivo, rat", "settings": "hPTH 7-84 given 10 minutes prior to each hPTH 1-84 injection, 1:1 molar ratio, N=6", "method": "Calcemic response. Normal female Sprague-Dawley rats weighing 225 to 250 g (Harlan, Indianapolis, Ind., USA) were parathyroidectomized (PTX) and fed a 0.02% calcium diet. Rats with a plasma calcium below 7.0 mg/dL after overnight fasting were included in the study. A 20 μg dose of hPTH 1-84 or 7-84 was given intraperitoneally to PTX rats in four doses of 5 μg each at 30-minute intervals (0, 30, 60, and 90 minutes). For control studies, the rats received vehicle (saline solution) alone. Blood was drawn via the tail at 0, 60, 90, and 120 minutes. For competition experiments, rats received an injection of hPTH 7-84 10 minutes prior to each injection of hPTH 1-84. The molar ratio of hPTH 7-84:hPTH 1-84 was 1:1.\nTotal plasma calcium levels were determined using an atomic absorption spectrophotometer (model 110B; Perkin Elmer, Norwalk, Conn., USA). Plasma phosphorus levels were determined using an autoanalyzer (COBAS MIRA Plus; Roche, Newark, N.J., USA)."}, "[2]": {"system": "rats having hypoparathyroidism (parathyroid glands removed)", "experiment": "Serum calcium after i.v. injection in rats with parathyroid glands removed", "assay_type": "in vivo, rat", "description": "The CAP rebound effect is believed to be the body's response to an administration of CIP. This response occurs when the parathyroid gland cells secrete CAP in an effort to return the CAP/CIP ratio to homeostasis with the pre-CIP administration levels. PTH antagonist administration is not accompanied by hypercalcemia and osteosarcoma, as with direct CAP administration. […] All of the rats had their parathyroid glands removed. Five rats received an i.v. injection of a saline control. The serum calcium of the control rats was measured and on average was lowered over time by about 0.18 mg/dl by virtue of a parathyroidectomy. Nine rats received an i.v. injection (10 μg/kg) of hPTH obtained from Bachem, AG of Bubendorf, Switzerland. The serum calcium of the hPTH rats was measured and on average was raised over time by about 0.65 mg/dl. Five rats received an equimolar i.v. injection of a PTH7-84 (an exemplary PTH antagonist) also obtained from Bachem, AG of Bubendorf, Switzerland. The serum calcium of the PTH antagonist rats was measured and on average was lowered over time by about 0.30 mg/dl. Finally, six rats received an i.v. injection comprised of hPTH (10 μg/kg) and an equimolar amount of PTH antagonist PTH7-84. The serum calcium of the hPTH/PTH antagonist rats was measured and on average remained substantially the same over time, raising only about 0.03 mg/dl."}, "[3]": {"system": "Normal female Sprague-Dawley rats", "experiment": "Phosphaturic response (clearance studies: GFR and FEPO4) in rats", "assay_type": "in vivo, rat", "settings": "for glomerular filtration rate (GFR), hPTH 7-84 given with hPTH 1-84: hPTH 7-84 given five minutes prior to hPTH 1-84, molar ratio 4:1, N=8, control period 2.1±0.1", "method": "Phosphaturic response. Normal female Sprague-Dawley rats weighing 225 to 250 g were prepared for clearance studies under light anesthesia. Polyethylene catheters (PE50) were placed in the femoeral artery for the collection of blood and measurement of blood pressure (Blood Pressure Analyzer; Micro-Medic, Inc., Louisville, Ky., USA), in the femoral vein for infusion and in the bladder for the collection of urine. Rats were placed in Plexiglass holders and allowed to recover from the effect of the anesthetic for one hour. A priming dose (0.6 mL) of chemical inulin in saline was administered over a period of three minutes to achieve a plasma inulin level between […]. A solution of saline containing inulin to maintain this level and calcium gluconate to deliver 0.5 mg. calcium was infused at the rate of 0.03 mL/min. After equilibration, a total of four 30-minute urine collections was obtained.\nTo assess the effect of hPTH 1-84 on phosphate excretion, urine was collected during two control periods, after which rats received a priming bolus of 1.8 μg of HPTH 1-84 followed by a sustained infusion that delivered a total of 8.2 μg of I-PTH. After an equilibration period of 20 minutes, two 30-minute urine collections were obtained. In competition experiments, HPTH 7-84 was given five minutes prior to hPTH 1-84 at a molar ratio of 4:1.\nBlood samples and blood pressure measurements were recorded at the beginning and end of the baseline period, at the beginning of the PTH infusion period, and at the end of the study. The concentration of inulin in plasma and urine was determined by the method of Führ, Kaczmarczyk, and Kruttgen, Klin Wochenschr, 33:729-730 (1955). The estimation of the glomerular filtration rate (GFR) by inulin clearance and the calculation of the fractional urinary excretion rate of phosphorus (FEP04) were performed in the standard fashion. Blood samples were centrifuged, and plasma phosphorus and calcium concentrations were measured."}, "ROS/17.2 cells": {"system": "ROS/17.2 cells", "experiment": "cAMP production in osteoblastic cell line ROS/17.2", "assay_type": "cell-based, rat", "settings": "for intracellular cAMP: 10^-8 mol/L peptide, five-minute incubation, N=6, before treatment 18.1±1.25", "method": "Osteoblastic cell line. To compare the biological effects of the two peptides (HPTH 1-84 and 7-84), intracellular cAMP production was measured in the rate osteosarcoma cell line ROS/17.2, which has an osteoblastic phenotype and is known to increase cAMP production in response to PTH. Cells were cultured in Ham's F12 media containing 10% fetal bovine serum. Cells were plated out in 12 well plates at a density of 30,000 cells per well and grown to confluence. Cells were washed three times with KHMS buffer at 37° C. (KCI 4.0 mmol/L, CaCl2 1.25 mmol/L, MgSO4 1.25 mmol/L, KH2PO4 1.2 mmol/L, HEPES 10 mmol/L, NaCl 100 mmol/L, NaHCO3 37 mmol/L, and glucose 10 mmol/L, pH 7.5). cAMP production was measured using 500 μL of KHMS buffer (37°) containing isobutyl-1 methylxantine (1BMX) 1.0 mmol/L and various concentrations (10^−11 to 10^−8 mol/L) of hPTH 1-84 or hPTH 7-84. After a five-minute incubation, 100 μL of 1.8 mol/L pechloric acid were added. After an additional five-minute incubation at room temperature, 100 μL of 3 mol/KHCO3 were added to neutralize the acid. Samples were centrifuged at 3000 rpm for 15 minutes, and the supernatants were assayed for cAMP [26]."}}, "note": "Several values for one entry are separate records, joined by “and”; a condition that tells them apart may be missing. Identical values can stand only once. Entries after “also recorded” stand apart in the source; their conditions may differ."}
{"molecule": "B1", "values": [{"measurement": "decrease of the calcemic response induced by hPTH 1-84", "setting": "[1]", "result": 94, "unit": "%"}, {"measurement": "serum calcium lowered over time (average)", "setting": "[2]; i.v. injection of PTH7-84 alone, equimolar to 10 μg/kg hPTH, five rats, saline control lowered about 0.18", "result": "about 0.30 mg/dl"}, {"measurement": "serum calcium raised over time (average), co-injection with hPTH", "setting": "[2]; i.v. injection of hPTH (10 μg/kg) and an equimolar amount of PTH7-84, six rats", "result": "about 0.03 mg/dl"}, {"measurement": "antagonist property compared with PTH3-34", "setting": "[2]; prevention of the hPTH-induced serum calcium increase in rats", "result": "much more potent in its antagonist property than the previously reported antagonist PTH3-34"}, {"measurement": "decrease of the increase in FEP04 (phosphaturia) induced by hPTH 1-84", "setting": "[3]; hPTH 7-84 coadministered with hPTH 1-84, molar ratio 4:1", "result": 50.2, "unit": "%"}, {"measurement": "glomerular filtration rate (GFR), hPTH 7-84 given with hPTH 1-84", "setting": "[3]", "result": "2.6 ± 0.2", "unit": "mL/min"}, {"measurement": "glomerular filtration rate (GFR), hPTH 7-84 given with hPTH 1-84", "setting": "[3]; listed as 7-84 PTH", "result": "significant increase"}, {"measurement": "intracellular cAMP", "setting": "ROS/17.2 cells", "result": "no effect"}]}
{"molecule": "B2", "values": [{"measurement": "serum calcium raised over time (average)", "setting": "[2]; i.v. injection 10 μg/kg hPTH alone, nine rats, saline control lowered about 0.18", "result": "about 0.65 mg/dl"}, {"measurement": "glomerular filtration rate (GFR)", "setting": "[3]; rats infused with hPTH 1-84 alone, N=10, control period 1.8±0.3", "result": "1.8 ± 0.1", "unit": "mL/min"}, {"measurement": "fractional excretion of phosphate (FEP04)", "setting": "[3]; rats infused with hPTH 1-84 alone, N=10, control period 11.9±2.4", "result": "27.7±2.4", "unit": "%"}, {"measurement": "intracellular cAMP", "setting": "ROS/17.2 cells", "result": "738±4.13 nmol/well and 738±4.1 nmol/well"}, {"measurement": "cAMP production, dose dependence", "setting": "ROS/17.2 cells; 10^-11 to 10^-8 mol/L peptide", "result": "increased cAMP production in a does-dependent manner; also recorded: increased cAMP production in a dose-dependent manner"}]}
